From patent publication US20230095569A1

Legend:
[1] = molecular target: mouse Claudine18.2 (mouse) (UniProt P56857); assay: FACS on CHOK1-m18.2 cells
[2] = molecular target: Rhesus monkey Claudine18.2 (Rhesus monkey) (UniProt F6YQY3); assay: FACS on CHOK1-rh18.2 cells
[3] = molecular target: human Claudin18.1 (CLDN18.1) (human) (UniProt P56856); assay: FACS on CHOK1-18.1 cells
Chain of human Claudin18.1 (CLDN18.1) (human) (P56856 whole entry): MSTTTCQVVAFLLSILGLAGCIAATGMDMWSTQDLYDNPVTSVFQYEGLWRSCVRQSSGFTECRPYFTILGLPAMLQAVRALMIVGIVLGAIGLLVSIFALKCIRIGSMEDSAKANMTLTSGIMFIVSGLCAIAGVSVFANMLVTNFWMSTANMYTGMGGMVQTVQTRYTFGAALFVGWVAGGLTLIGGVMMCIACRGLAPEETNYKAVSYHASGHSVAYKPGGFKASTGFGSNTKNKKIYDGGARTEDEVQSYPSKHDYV

B1: Ab16 (antibody, V domains shown)
VH: EVMLVESGGGLVKPGGSLKLSCAASGFTFNSYTMSWVRQTPEKRLEWVATITVIGGNTYYLDSVKGRFTISIDNGKNTLYLQMSSLRSEDTALYYCARMGQTQRNAMDYWGQGTSVTVSS
VL: DIVMTQSPSSLSVSAGQKVTMRCKSSQSLLNSGNQKNYLAWYQQKLGQPPKLLIYGASTRESGVPDRFSGSGSGTDFTLTITSVQAEDLAVYYCQNDYSFPLTFGAGTKLELK
FACS MFI [1]: 14300
FACS MFI [2]: 6660

B2: Ab17 (antibody, V domains shown)
VH: QVQLKESGPGLVAPSQSLSITCTVSGFSLTSYAISWVRQPPGKGLEWLGEIWTGGGTNYNSALKSRLSISKDNSKSQVFLKMNSLQTDDTARYYCGRLSYGNSLDYWGQGTTLTVSS
VL: DIVMTQSPSSLTVTAGEKVTMSCKSSQSLLNSGNQKNYLTWYQQKPGQPPKLLIYWASTRESGVPDRFTGSGSGTDFTLTVSSVQAEDLAVYYCQNNFIYPLTFGPGTKLELK
FACS MFI [1]: 13300
FACS MFI [2]: 6680

B3: Ab36 (antibody, V domains shown)
VH: EVKLEESGGGLVQPGGSMKLSCVASGFTFSNYWMNWVRQSPEKGLEWVAQIRLKSDNYATHYAESVKGMFTISRDDSKSSVYLQMNNLRAEDTGIYYCTAGGDYWGQGTTLTVSS
VL: DIVMTQSQKFMSTTVGDRVSITCKASQNVGTAVAWYHQKPGQSPKLLIYSASNRYTGVPDRFIGSGSGTDFTLTISNVQSEDLGNYFCQQYINYLLTFGSGTKLEIK
FACS MFI [3]: 4300
FACS MFI [1]: 21600
FACS MFI [2]: 17400

B4: Ab02 (antibody, V domains shown)
VH: QVQLKESGPGLVAPSQSLSITCTVSGFSLTSYAINWVRQPPGKGLEWLGVIWTGGGTNYNSALKSRLSINKDNSKSQVFLKMNSLQTDDTARYYCARFYDGYYSWFAYWGQGTLVTVSA
VL: DIVMTQSHKFMSTSVGDRVSITCKASQDVGTAVTWYQQKPGQSPKLLIYWASTRHTGVPDRFTGSGSGTDFTLTISNVQSEDLADYFCQQYSSYPFTFGSGTKLEIK
FACS MFI [1]: 2040
FACS MFI [2]: 1400

B5: Ab38 (antibody, V domains shown)
VH: QIQLVQSGPELKKPGETVKISCKASGYTFTNYGMSWVKQAPGKGLKWMGWINTYSGVPTYADDFKGRFVFSLEASASTAYLQINNLKNEDAATYFCSRWSGPDPLEDHWGQGTTLTVSS
VL: QIVLTQSPAIMSASPGEKVTMTCTASLSLNYIHWYRQRSGTSPKRWIYDTSKLASGVPSRFSGSGSGTSYSLTISSMEAEDAATYYCQQWSSNPWTFGGGTKLEIK
FACS MFI [3]: 4470
FACS MFI [1]: 20400
FACS MFI [2]: 15600

B6: Ab18 (antibody, V domains shown)
VH: QVQLKESGPGLVAPSQSLSITCTVSGFSLTTYGINWVRQPPGKGLEWLGVIWGDGSTNYHSALISRLSISKDNSKSQVFLKLNSLQTDDTATYYCVKSSYYGNAMDYWGQGTSVTVSS
VL: DIVMTQSPSSLTVTAGETVTMSCKSSQSLLNSGNQKNYLTWYQQKPGQPPKLLIYWASTRESGVPDRFTGSGSGTDFTLTISSVQAEDLAVYYCQNVYSYPFTFGSGTKLEI
FACS MFI [1]: 13500
FACS MFI [2]: 7890

B7: Ab21 (antibody, V domains shown)
VH: EVMLVESGGGLVKPGGSLKLSCAASGFTFSSYTMSWVRQTPEKRLEWVATIIGGYGNTYYVDSVKGRFTISRDSAKNTLYLQMISLRSEDTALYYCTRLGQTQRNAMDYWGQGTSVTVSS
VL: DILMTQSPSSLSVSAGEKVTMSCKSSQSLLNSGNQKNYLAWYQQKPGQPPKLLIYGASTRESGVPDRFTGSGSGTDFTLTISSVQAEDLAVYYCQNDYYYPFTFGAGTKLEL
FACS MFI [1]: 15200
FACS MFI [2]: 8240

B8: Ab19 (antibody, V domains shown)
VH: EVMLVESGGDLVKPGGSLKLSCAASGFSFSRYTMSWVRQTPEKRLEWVATVSVGSGNTYYLDSVKGRFTISRDNAKNTLFLQMSSLRSEDTALYYCARMGQTQRNAVDYWGQGTSVTVSS
VL: DIVMTQSPSSLSVSAGEKVTMSCKSSQSLFNSGNQKNYLAWYQQKPGQPPKLLIYGASTRESGVPDRFTGSGSGTDFTLTISNVQAEDLAVYLCQNDHSFPLTFGAGTKLEL
FACS MFI [1]: 13400
FACS MFI [2]: 6290

B9: Ab24 (antibody, V domains shown)
VH: EVKLVESGGGLVKPGGSLKLSCAGSGFTFSSYTMSWVRQTPEKRLEWVATITIGVNIYYLDSVKGRFTISRDNAKNTLYLQMNSLRSEDTALYYCTRLGQTQRNAMDYWGQGTSVTVSS
VL: DIVMTQSPTSLSVSAGEKVTMTCKSSQSLFNSGNQKNYLAWYQEKPGQPPKLLIYGASTRESGVPDRFTGSGSGTDFTLTISSVQAEDLAVYYCQNVHFYPFTFGAGTKLEL
FACS MFI [1]: 12800
FACS MFI [2]: 7520

B10: Ab20 (antibody, V domains shown)
VH: EVMLVESGGGLVKPGGSLKLSCVASGFTFSSYTMSWVRQTPEKRLEWVATIIGGYGNTYYSDSVKGRITISRDSAKNTLYLQMISLRSEDTALYYCTRLGQTQRNAMDYWGQGTSVTVSS
VL: DILMTQSPSSLSVSAGEKVTMNCKSSQSLLNSGNQKNYLAWYQQKPGQPPKLLIYGASTRESGVPDRFTGSGSGTDFTLTISSVQAEDLAVYYCQNDYYYPFTFGAGTKLEL
FACS MFI [1]: 13800
FACS MFI [2]: 7050

B11: Ab22 (antibody, V domains shown)
VH: EVMLVESGGGLVKPGGSLKLSCAASGFTFSSYTMSWVRQTPEKRLEWVATIIGGYGNTYYADSVKGRFTISRDSAKNTLYLQMISLRSEDTALYYCTRLGQTQRNAMDYWGQGTSVTVSS
VL: DILMTQSPSSLSVSAGEKVTMSCKSSQSLLNSGNQKNYLAWYQQKPGQPPKLLIYGASTRESGVPDTFTGSGSGTDFTLTISSVQAEDLAVYYCQNDYYYPFTFGAGTKLEL
FACS MFI [1]: 15500
FACS MFI [2]: 7330
